# Data from publication PMC3923656 (Journal of cellular biochemistry, 2009).
# T1: GST-Hoxa1-993 (mouse, UniProt P09022 1-331)
# T1 sequence (looked up): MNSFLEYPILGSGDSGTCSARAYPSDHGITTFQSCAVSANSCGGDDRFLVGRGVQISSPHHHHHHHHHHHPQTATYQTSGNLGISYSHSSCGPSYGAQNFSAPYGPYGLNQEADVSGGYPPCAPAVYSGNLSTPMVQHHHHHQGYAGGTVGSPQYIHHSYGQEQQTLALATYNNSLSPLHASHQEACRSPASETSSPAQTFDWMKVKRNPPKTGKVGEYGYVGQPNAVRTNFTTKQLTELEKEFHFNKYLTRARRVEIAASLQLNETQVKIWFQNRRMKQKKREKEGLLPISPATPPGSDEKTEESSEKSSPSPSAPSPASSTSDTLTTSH
# Molecular target: T1, GST-Hoxa1-993
# Test: pull-down
binder,measurement,value
"Hoxa1-399, [35S]-labeled, in vitro translated (natural protein, mouse, UniProt P09022-2 1-133, looked up, [35S]-cysteine radiolabel) MNSFLEYPILGSGDSGTCSARAYPSDHGITTFQSCAVSANSCGGDDRFLVGRGVQISSPHHHHHHHHHHHPQTATYQTSGNLGISYSHSSCGPSYGAQNFSAPYGPYGLNQEADPPRSLSFPCFRDVFSSADL",fold bound over GST alone,8 fold
